T1: human IL-36R (on cells) (human, UniProt Q9HB29 20-575)
T1 sequence (looked up): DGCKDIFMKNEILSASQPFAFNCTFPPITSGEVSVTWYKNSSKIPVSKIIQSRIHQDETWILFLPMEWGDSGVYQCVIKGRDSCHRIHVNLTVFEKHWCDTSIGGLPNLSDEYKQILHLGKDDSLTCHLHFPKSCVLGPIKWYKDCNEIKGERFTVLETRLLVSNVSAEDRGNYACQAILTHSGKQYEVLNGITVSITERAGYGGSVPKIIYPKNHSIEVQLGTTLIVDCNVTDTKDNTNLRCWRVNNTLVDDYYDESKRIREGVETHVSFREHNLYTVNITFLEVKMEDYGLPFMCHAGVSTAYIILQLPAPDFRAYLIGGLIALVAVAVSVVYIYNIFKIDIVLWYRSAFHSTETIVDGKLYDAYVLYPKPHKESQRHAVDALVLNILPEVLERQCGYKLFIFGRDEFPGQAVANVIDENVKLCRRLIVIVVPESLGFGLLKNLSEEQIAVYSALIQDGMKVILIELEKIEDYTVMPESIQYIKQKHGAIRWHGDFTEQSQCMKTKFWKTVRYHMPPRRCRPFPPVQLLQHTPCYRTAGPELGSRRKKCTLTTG

T2: extracellular domain of human IL-36R (human, UniProt Q9HB29 20-335)
T2 construct: extracellular domain; Immobilised on the chip in the BIACORE assay; soluble and bead-coupled in the KINEXA assay; also called soluble human IL-36R extracellular domain
T2 sequence (looked up): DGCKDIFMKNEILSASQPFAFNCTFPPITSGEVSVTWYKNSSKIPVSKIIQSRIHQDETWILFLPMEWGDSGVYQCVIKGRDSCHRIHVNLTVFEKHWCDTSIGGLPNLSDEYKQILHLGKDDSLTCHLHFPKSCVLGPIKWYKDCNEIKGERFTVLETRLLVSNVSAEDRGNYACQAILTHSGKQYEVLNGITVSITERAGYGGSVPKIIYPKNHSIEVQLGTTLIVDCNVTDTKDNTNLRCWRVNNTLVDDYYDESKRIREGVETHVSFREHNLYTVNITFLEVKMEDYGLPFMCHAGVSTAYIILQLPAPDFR


Key:
human IL-36R (on cells) [1] = target: T1, human IL-36R (on cells); experiment: cell-based or functional assay
human IL-36R (on cells) [2] = target: T1, human IL-36R (on cells); experiment: cell-based or functional assay; remark: listed apart in the source
human IL-36R (on cells) [3] = target: T1, human IL-36R (on cells); experiment: cell-based or functional assay; remark: listed apart in the source
[4] = target: cynomolgus IL-36R (on cells, allelic variant not stated) (cynomolgus monkey), A0A2K5; experiment: cell-based or functional assay
[5] = target: T2, extracellular domain of human IL-36R; experiment: BIACORE T200 SPR, human IL-36R extracellular domain immobilised, antibody injected
Description: The binding affinities of various purified antibodies comprising immunoglobulin heavy chain (HC) and light chain (LC) polypeptides described herein were evaluated using BIACORE™ T200 […] assays. BIACORE™ T200 evaluation software (GE Healthcare, Buckinghamshire, United Kingdom) is used to determine antibody-antigen binding kinetics and affinity. The extracellular domain of human IL-36R was immobilized at approximately 100 RU onto a CMS sensor chip (GE Healthcare, Waukesha, Wis.) using amine coupling chemistry. HBS-EP+ buffer (0.01 M HEPES, 0.15 M NaCl, 3 mM EDTA, 0.05% Polysorbate, pH 7.6) (Teknova, Hollister, Calif.) was used to reconstitute each antibody at various concentrations Each antibody concentration was then injected for two to three minutes over immobilized antigen at a flow rate of 30 μL/min, and allowed to dissociate for 15 minutes. The surface was regenerated with 60 μL of 3 M MgCl₂ after each cycle. Association and dissociation kinetic constants (kon and koff) were fit globally using a 1:1 binding model with mass transport with the BIACORE™ T200 evaluation software in order to report on- and off-rates (ka and kd, respectively), as well as affinities (KD).

[6] = target: cyno IL-36R (BIACORE antigen of Table 4) (cynomolgus monkey); experiment: BIACORE T200 SPR, cyno IL-36R
[7] = target: T2, extracellular domain of human IL-36R; experiment: KINEXA 3000 solution-phase equilibrium, soluble human IL-36R extracellular domain
Description: The binding affinities of various purified antibodies comprising immunoglobulin heavy chain (HC) and light chain (LC) polypeptides described herein also were evaluated using a KINEXA® 3000 assay (Sapidyne Instruments, Boise, Id.) assays. KINEXA® technology measures the amount of unbound/free antibody molecule in solution phase after incubation with varying concentrations of antigen. Measuring binding events in the solution phase with micro beads for maximized surface area avoids mass transport limitations and mobility effects inherent to methods that measure binding to a solid phase. For each experiment, 50 μg of soluble human or cyno IL-36R extracellular domain was amine-coupled to 50 mg of UltraLink Biosupport beads (Thermo Fisher Scientific, Waltham, Mass.). […] Antibody-antigen solution was then flowed over antigen-coupled beads at a rate of 0.25 mL/min. Free antibody captured by beads was detected using ALEXA FLUOR™ 647-conjugated AffiniPure Donkey Anti-Human IgG (H+L) (Jackson ImmunoResearch, West Grove, Pa.) (500 ng/ml). The KD and/or ABC (active binding concentration) of antibody was obtained from non-linear regression analysis using a one-site homogeneous binding model in the KINEXA™ Pro Software.

[8] = target: cynomolgus monkey IL-36R variant 2 (on cells) (cynomolgus monkey), A0A2K5; experiment: cell-based or functional assay
[9] = target: cynomolgus monkey IL-36R variant 3 (on cells) (cynomolgus monkey), A0A2K5; experiment: cell-based or functional assay
Chain of cynomolgus monkey IL-36R variant 3 (on cells) (cynomolgus monkey), A0A2K5 (chain, as listed by the source mutant): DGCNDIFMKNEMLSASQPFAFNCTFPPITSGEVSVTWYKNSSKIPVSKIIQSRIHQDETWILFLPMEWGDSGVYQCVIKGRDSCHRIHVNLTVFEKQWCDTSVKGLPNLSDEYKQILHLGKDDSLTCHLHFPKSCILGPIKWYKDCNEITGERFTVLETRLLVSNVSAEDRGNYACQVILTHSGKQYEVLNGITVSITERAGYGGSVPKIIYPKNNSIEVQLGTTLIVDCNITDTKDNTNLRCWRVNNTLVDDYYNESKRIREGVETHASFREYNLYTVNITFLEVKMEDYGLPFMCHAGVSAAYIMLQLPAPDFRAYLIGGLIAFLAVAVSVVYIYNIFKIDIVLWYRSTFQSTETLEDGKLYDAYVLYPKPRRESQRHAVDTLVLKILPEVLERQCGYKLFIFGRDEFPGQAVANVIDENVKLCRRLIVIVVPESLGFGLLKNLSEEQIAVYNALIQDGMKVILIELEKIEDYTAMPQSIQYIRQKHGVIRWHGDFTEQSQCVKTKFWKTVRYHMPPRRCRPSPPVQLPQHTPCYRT

Chain of cynomolgus IL-36R (on cells, allelic variant not stated) (cynomolgus monkey), A0A2K5 (chain, as listed by the source mutant): as above
Chain of cynomolgus monkey IL-36R variant 2 (on cells) (cynomolgus monkey), A0A2K5 (chain, as listed by the source mutant): as above

Binder	EC50 (nM), HEK human IL-36R IL-8 luciferase reporter assay, 20 ng/ml hIL-36β (human IL-36R (on cells) [1])	EC50 (nM), HEK human IL-36R IL-8 luciferase reporter assay, 50 ng/ml hIL-36α (human IL-36R (on cells) [1])	EC50 (nM), HEK human IL-36R IL-8 luciferase reporter assay, 200 ng/ml hIL-36γ (human IL-36R (on cells) [1])	EC50 (nM), IL-8 secretion by primary human keratinocytes, 1 ng/ml human IL-36β (human IL-36R (on cells) [2])	EC50 (nM), IL-8 secretion by primary human keratinocytes, 10 ng/ml human IL-36α (human IL-36R (on cells) [2])	EC50 (nM), IL-8 secretion by primary human keratinocytes, 100 ng/ml human IL-36γ (human IL-36R (on cells) [2])	EC50 (nM), IL-8 secretion by primary human monocytes, human IL-36α (human IL-36R (on cells) [3])	EC50 (nM), IL-8 secretion by primary human monocytes, human IL-36β (human IL-36R (on cells) [3])	EC50 (nM), IL-8 secretion by primary human monocytes, human IL-36γ (human IL-36R (on cells) [3])	EC50 (nM), HEK cyno IL-36R IL-8 luciferase reporter assay, 300 ng/ml cIL-36γ [4]	EC50 (nM), HEK cyno IL-36R IL-8 luciferase reporter assay, 2 µg/ml cIL-36α [4]	EC50 (nM), HEK cyno IL-36R IL-8 luciferase reporter assay, 10 µg/ml cIL-36β [4]	EC50 (nM), IL-8 secretion by primary cynomolgus PBMCs, 10 ng/ml cyno IL-36β [4]	EC50 (nM), IL-8 secretion by primary cynomolgus PBMCs, 50 ng/ml cyno IL-36α [4]	EC50 (nM), IL-8 secretion by primary cynomolgus PBMCs, 250 ng/ml cyno IL-36γ [4]	EC50 (nM), IL-8 secretion by primary cynomolgus keratinocytes, 10 ng/ml cyno IL-36β [4]	EC50 (nM), IL-8 secretion by primary cynomolgus keratinocytes, 50 ng/ml cyno IL-36α [4]	EC50 (nM), IL-8 secretion by primary cynomolgus keratinocytes, 250 ng/ml cyno IL-36γ [4]	Kd [5]	Kd [7]	further results
Hzd 5D3 (APE6060) (antibody, V domains shown, also called 5D3 Humanized) VH: QVQLVQSGAEVKKPGASVKVSCKASGYTFTNYWMNWVRQAPRQGLEWMGMFHPTGDVTRLNQKFKDRVTMTRDTSTSTVYMELSSLRSEDTAVYYCARTTSMIIGGFAYWGQGTLVTVSS VL: DIVMTQTPLSLSVTPGQPASISCRSSKSLLHRNAITYFYWYLQKPGQPPQLLIYQMSNLASGVPDRFSGSGSGTDFTLKISRVEAEDVGVYYCAQNLELPLTFGGGTKVEIK	0.24 nM	0.23 nM	0.35 nM	0.217 nM	0.08 nM	0.08 nM	0.081 nM	0.9 nM	0.79 nM	0.29 nM	0.067 nM	0.17 nM	1.7 nM	0.98 nM	1.4 nM	1.4 nM	1.4 nM	1 nM	50 pM	–	–
Humanized (HzD) 1D9 (APE5281) (antibody, V domains shown, also called 1D9 Humanized) VH: QVQLMQSGAEVKKPGASVKVSCKASGFTFTSYDINWVRQAPGQRLEWMGWIYPGDSSTKYNEKFKGRVTITADKSANTAYMELASLRSEDTAVYFCTRSFYTMDYWGQGTTVTVSS VL: DIVMTQSPLSLPVTPGEPASISCRSSKSLLHSNANTYLYWFLQKPGQSPQLLISRMSNLASGVPDRFSGSGSGTDFTLKISRVEAEDVGVYYCMQHLEYPFTFGQGTKLEIK	–	0.17 nM	0.12 nM	0.053 nM	0.047 nM	0.04 nM	0.035 nM	0.033 nM	0.027 nM	–	–	–	–	–	–	–	–	–	77 pM	8 pM	Kd [6]: 126 pM
APE6904 (antibody, V domains shown, also called 18D4 Humanized) VH: DLQFQESGPGLVKPSQTLSLTCTVTGYSITADFAWNWIRQPPGKGLEWIGYISYSGDTNYNPSLKSRVTITRDTSKNQFSLKLSSVTAADTAVYFCAIRGPYSFTYWGQGTLVTVSS VL: DIQMTQSPSSLSASVGDRVTITCRASQWINNYLNWYQQKPGKAPKLLIYYTSMLHSGVPSRFSPSGSGNDYTFTISSLQPEDIATYYCQQGHTLPWTFGGGTKVEIKR	–	–	–	–	–	–	–	–	–	–	–	–	–	–	–	–	–	–	–	27 pM	–

The next lines start with results.

EC50 (nM), HEK human IL-36R IL-8 luciferase reporter assay, 20 ng/ml hIL-36β (human IL-36R (on cells) [1])	EC50 (nM), HEK human IL-36R IL-8 luciferase reporter assay, 50 ng/ml hIL-36α (human IL-36R (on cells) [1])	EC50 (nM), HEK human IL-36R IL-8 luciferase reporter assay, 200 ng/ml hIL-36γ (human IL-36R (on cells) [1])	EC50 (nM), IL-8 secretion by primary human keratinocytes, 1 ng/ml human IL-36β (human IL-36R (on cells) [2])	EC50 (nM), IL-8 secretion by primary human keratinocytes, 10 ng/ml human IL-36α (human IL-36R (on cells) [2])	EC50 (nM), IL-8 secretion by primary human keratinocytes, 100 ng/ml human IL-36γ (human IL-36R (on cells) [2])	EC50 (nM), IL-8 secretion by primary human monocytes, human IL-36α (human IL-36R (on cells) [3])	EC50 (nM), IL-8 secretion by primary human monocytes, human IL-36β (human IL-36R (on cells) [3])	EC50 (nM), IL-8 secretion by primary human monocytes, human IL-36γ (human IL-36R (on cells) [3])	EC50 (nM), HEK cyno IL-36R IL-8 luciferase reporter assay, 300 ng/ml cIL-36γ [4]	EC50 (nM), HEK cyno IL-36R IL-8 luciferase reporter assay, 2 µg/ml cIL-36α [4]	EC50 (nM), HEK cyno IL-36R IL-8 luciferase reporter assay, 10 µg/ml cIL-36β [4]	EC50 (nM), IL-8 secretion by primary cynomolgus PBMCs, 10 ng/ml cyno IL-36β [4]	EC50 (nM), IL-8 secretion by primary cynomolgus PBMCs, 50 ng/ml cyno IL-36α [4]	EC50 (nM), IL-8 secretion by primary cynomolgus PBMCs, 250 ng/ml cyno IL-36γ [4]	EC50 (nM), IL-8 secretion by primary cynomolgus keratinocytes, 10 ng/ml cyno IL-36β [4]	EC50 (nM), IL-8 secretion by primary cynomolgus keratinocytes, 50 ng/ml cyno IL-36α [4]	EC50 (nM), IL-8 secretion by primary cynomolgus keratinocytes, 250 ng/ml cyno IL-36γ [4]	Kd [5]	Kd [7]	Binder	further results
0.3 nM	0.17 nM	0.45 nM	0.164 nM	0.105 nM	0.083 nM	0.09 nM	0.105 nM	0.084 nM	0.31 nM	0.073 nM	0.19 nM	1.6 nM	1.5 nM	1.6 nM	2 nM	1.2 nM	1.2 nM	22 pM	–	Hzd 5D3 (APE6194) (antibody, V domains shown, also called 5D3 Humanized) VH: QVQLVQSGAEVKKPGASVKVSCKASGYTFTNYWMNWVRQAPRQGLEWMGMFHPYGDVTRLNQKFKDRVTMTRDTSTSTVYMELSSLRSEDTAVYYCARTTSMIIGGFAYWGQGTLVTVSS VL: DIVMTQTPLSLSVTPGQPASISCRSSKSLLHRNAITYFYWYLHKPGQPPQLLIYQMSNLASGVPDRFSGSGSGTDFTLKISRVEAEDVGVYYCAQNLELPLTFGGGTKVEIK	–
–	–	–	–	–	–	–	–	–	0.24 nM	–	–	–	–	–	1.8 nM	2.3 nM	5.6 nM	–	–	Hzd 18D4 (APE7247) (antibody, V domains shown) VH: DVQFQESGPGLVKPSQTLSLTCTVTGYSITADFAWNWIRQPPGKGLEWIGYISYSGDTNYNPSLKSRVTITRDTSKNQFSLKLSSVTAADTAVYFCAIRGPYSFTYWGQGTLVTVSSA VL: DIQMTQSPSSLSASVGDRVTITCRASQWINNYLNWYQQKPGKAPKLLIYYTSMLHSGVPSRFSPSGSGNDYTFTISSLQPEDIATYYCQQGHTLPWTFGGGTKVEIKRT	EC50 (nM), IL-8 luciferase reporter assay, 300 ng/ml IL-36γ (Cyno IL-36R variant 2) [8]: 0.065 nM; EC50 (nM), IL-8 luciferase reporter assay, 300 ng/ml IL-36γ (Cyno IL-36R variant 3) [9]: 0.42 nM

From US20200087408A1 (ANAPTYSBIO, published 2020)
